Measurements as given in patent US20240150423A1, “GLP-1 ANALOGUE-MODIFIED DIMERS WITH DIFFERENT CONFIGURATIONS, PREPARATION METHOD THEREOF, AND APPLICATION THEREOF IN TREATMENT OF TYPE II DIABETES” (Nanjing Finepeptide Biopharmaceutical Co.,Ltd, priority 2019, published 2024).
Where a chain is given by its changes, count along the chain named. Starred links: 1 amine or outer side, 2 acyl side, 3 side chain; linkers in the order of their positions; H or OH if unused. Groups on a side chain read outwards from the residue. γGlu = O=C(O)[C@H](CCC(=O)[*:2])N[*:1]; oleoyl = alkanoyl with 18 carbons

Test system: Normal Kunming (KM) mice
Test: multiple OGTT (mOGTT): hypoglycemic duration after a single administration
Format: in vivo
Conditions: single injection at the same dose (1.126 nmol), subcutaneous
Excerpt: • 1. Methods: Normal Kunming (KM) mice (purchased from Guangdong Animal Center) were used for oral glucose tolerance test (OGTT) to obtain the hypoglycemic activity and durability of drug. […] The blood glucose meter and blood glucose test paper were from Bayer […]. The average blood glucose of each group was used as an evaluation standard: When the average blood glucose of experimental group was higher than that of the NaCl control group for two times, the measurement stopped and the hypoglycemic period compared to the blank control group was the effective duration. • 2. Results • 2.1 single OGTTs: after a single administration, the mice were orally administered glucose once and measured the blood glucose from the tail blood at 0, 10, 20, 40, 60 and 120 min. […] The duration of each monomer group was about 1⁄2-1⁄4 of the duration of its corresponding dimer group. […] Therefore, the 2G3 peptide was selected for treating type II diabetes (T2D) in vivo and subsequent experiments.

B1: 2G2 series 10: disulfide-linked homodimer of monomer SEQ ID NO: 10 (peptide)
chain 1: HAEGTFTSDVCSYLEGQAAXEFIAWLVRGRG
chain 2: B1 chain 1
modifications: not fully specified; disulfide-linked homodimer; Sequence is synthesized; (20)..(20) Xaa is 26Lys[N-e-(N-a-oleoyl-L-g-glutamyl)]; (31)..(31) N-terminal
Hypoglycemic duration: 8 days

B2: 2G2 series 15: disulfide-linked homodimer of monomer SEQ ID NO: 15 (peptide)
chain 1: B1 chain 1 with A2X
chain 2: B1 chain 1 with A2X
modifications: not fully specified; disulfide-linked homodimer; Sequence is synthesized; (2)..(2) Xaa is bAib; (20)..(20) Xaa is 26Lys[N-e-(N-a-oleoyl-L-g-glutamyl)]; (31)..(31) N-terminal
Hypoglycemic duration: 10 days

B3: 2G2 series 18: disulfide-linked homodimer of monomer SEQ ID NO: 18 (peptide)
chain 1: B1 chain 1 with A2X
chain 2: B1 chain 1 with A2X
modifications: not fully specified; disulfide-linked homodimer; Sequence is synthesized; (2)..(2) Xaa is bAla; (20)..(20) Xaa is 26Lys[N-e-(N-a-oleoyl-L-g-glutamyl)]; (31)..(31) N-terminal
Hypoglycemic duration: 9 days

B4: His-Ala-Glu-Gly-Thr-Phe-Thr-Ser-Asp-Val-Ser-Cys-Tyr-Leu-Glu-Gly-Gln-Ala-Ala-Lys[N-ϵ-(N-α-oleoyl-L-γ-glutamyl)]-Glu-Phe-Ile-Ala-Trp-Leu-Val-Arg-Gly-Arg-Gly-His-Gly-Glu-Gly-Thr-Phe-Thr-Ser-Asp-Val-Ser-S … (peptide)
chain: HAEGTFTSDVSCYLEGQAAK([γGlu-oleoyl])EFIAWLVRGRGHGEGTFTSDVSSYLEGQAAREFIAWLVRGRG-OH
Hypoglycemic (day) (monomeric peptides): 5 (G9 peptide) day

B5: 2G9 series 70: disulfide-linked homodimer of monomer SEQ ID NO: 70 (peptide)
chain: HAEGTFTSDVSCYLEGQAAK([γGlu-oleoyl])EFIAWLVRGRGHGEGTFTSDVSSYLEGQAAREFIAWLVRGRG
modifications: also: disulfide-linked homodimer, feature at 62: C-terminal
Hypoglycemic duration: 11 days
